In the test the target is phage-displayed CTXD of SEQ ID NO: 24 (bacteriophage M13). The experiment in a line: Co-bead test, phage display (FIG. 3).

B1: his-tagged MMP-2 (Co-bead test; ProSpec #ENZ-769) (enzyme)
chain: YNFFPRKPKWDKNQITYRIIGYTPDLDPETVDDAFARAFQVWSDVTPLRFSRIHDGEADIMINFGRWEHGDGYPFDGKDGLLAHAFAPGTGVGGDSHFDDDELWTLGEGQVVRVKYGNADGEYCKFPFLFNGKEYNSCTDTGRSDGFLWCSTTYNFEKDGKYGFCPHEALFTMGGNAEGQPCKFPFRFQGTSYDSCTTEGRTDGYRWCGTTEDYDRDKKYGFCPETAMSTVGGNSEGAPCVFPFTFLGNKYESCTSAGRSDGKMWCATTANYDDDRKWGFCPDQGYSLFLVAAHEFGHAMGLEHSQDPGALMAPIYTYTKNFRLSQDDIKGIQELYGASPDIDLGTGPTPTLGPVTPEICKQDIVFDGIAQIRGEIFFFKDRFIWRTVTPRDKPMGPLLVATFWPELPEKIDAVYEAPQEEKAVFFAGNEYWIYSASTLERGYPKPLTSLGLPPDVQRVDAAFNWSKNKKTYIFAGDKFWRYNEVKKKMDPGFPKLIADAWNAIPDNLDAVVDLQGGGHSYFFKGAYYLKLENQSLKSVKFGSIKSDWLGC
notes: range 110-660; also called matrix metalloproteinase 2
As to B1, the binding result was “binds”.

The record behind these values is US20240115717A1 (VRG THERAPEUTICS KFT, published 2024).
